The source of these data is PMC5603727.

The term Kd denotes the equilibrium constant for the complex coming apart.

Series [1] deals with T1, Roquin-1 ROQ domain (SPR, EMSA wild type) (UniProt Q4VGL6 171-326).
T1 sequence: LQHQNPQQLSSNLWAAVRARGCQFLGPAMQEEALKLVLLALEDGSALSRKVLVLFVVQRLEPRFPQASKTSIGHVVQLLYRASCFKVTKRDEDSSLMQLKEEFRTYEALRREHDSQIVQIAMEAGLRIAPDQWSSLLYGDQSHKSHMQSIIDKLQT
Description: SPR; 2 mM Mg2+, 10 C; SPR: 10 mM HEPES pH 7.4, 150 mM NaCl, 2 mM MgCl2, 0.005% Tween 20, 10 C, ROQ immobilized; EMSA: 20 mM HEPES pH 7.4, 50 mM NaCl, 1 mM MgCl2, 1 mM DTT, 1 ug/ul BS. A general note: In SPR one partner is held on a chip, and binding of the other changes the refractive index at the surface.

The target in the next series is T2, Roquin-1 ROQ (147-326) (UniProt Q4VGL6 147-326).
T2 sequence: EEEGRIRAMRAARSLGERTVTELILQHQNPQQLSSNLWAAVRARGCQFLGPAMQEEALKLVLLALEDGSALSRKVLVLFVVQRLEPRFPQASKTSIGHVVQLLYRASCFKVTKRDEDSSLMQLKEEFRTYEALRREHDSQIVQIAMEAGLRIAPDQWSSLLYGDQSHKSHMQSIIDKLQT
Description: EMSA; SPR: 10 mM HEPES pH 7.4, 150 mM NaCl, 2 mM MgCl2, 0.005% Tween 20, 10 C, ROQ immobilized; EMSA: 20 mM HEPES pH 7.4, 50 mM NaCl, 1 mM MgCl2, 1 mM DTT, 1 ug/ul BS. On the technique in general: In EMSA bound probe runs differently from free probe, usually more slowly.

The target of a further series is T3, Roquin-1 N-term (UniProt Q4VGL6 2-440).
T3 sequence: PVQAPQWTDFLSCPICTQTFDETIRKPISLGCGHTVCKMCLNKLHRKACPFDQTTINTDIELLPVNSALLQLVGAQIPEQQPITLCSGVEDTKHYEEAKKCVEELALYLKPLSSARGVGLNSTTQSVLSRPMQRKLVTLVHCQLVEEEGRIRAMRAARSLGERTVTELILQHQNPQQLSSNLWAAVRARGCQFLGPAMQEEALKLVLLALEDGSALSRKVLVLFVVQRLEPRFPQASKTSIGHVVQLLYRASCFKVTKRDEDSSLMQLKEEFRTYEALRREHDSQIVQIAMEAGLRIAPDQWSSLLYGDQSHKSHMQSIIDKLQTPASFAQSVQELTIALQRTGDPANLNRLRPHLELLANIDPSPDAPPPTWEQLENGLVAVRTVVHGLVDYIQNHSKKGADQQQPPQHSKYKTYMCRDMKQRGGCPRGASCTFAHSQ
The series is described as above.

Another series has as its target T4, Roquin-1 ROQ (171-326) (UniProt Q4VGL6 171-326).
T4 sequence: T1 sequence
The series is described as follows: NMR; 298 K; SPR: 10 mM HEPES pH 7.4, 150 mM NaCl, 2 mM MgCl2, 0.005% Tween 20, 10 C, ROQ immobilized; EMSA: 20 mM HEPES pH 7.4, 50 mM NaCl, 1 mM MgCl2, 1 mM DTT, 1 ug/ul BS.

The molecule UCCACACCGUUCUAGGUGCUGG (structured_RNA) [Ox40 ADE-like SL] gave a Kd in series [1] of 81 ± 22 nM.
On to UCCACACCGUACGAGGUGCUGG (structured_RNA) [Ox40 ADE-like Mut3 (U11A,U13G)], for which, in series [1], the binding result is on record as “no binding”.
In the case of UCCACACCCUUCUAGGUGCUGG (structured_RNA) [Ox40 ADE-like Mut2 (G9C)], in series [1], the binding result is on record as “no binding”.
As for CUAUGUAUGCUAUGCAUACUACC (structured_RNA) [Ox40 CDE-like SL], the binding result with Roquin-1 ROQ (147-326) and with Roquin-1 N-term was “binds” in each case.
UCCACACAGUUCUAUGUGCUGG (structured_RNA) [Ox40 ADE-like Mut4 (C8A,G15U)] yielded a Kd in series [1] of 234 ± 63 nM.
UGACUGCGUUUUAGGAGUUA (structured_RNA) [SELEX-derived ADE SL]: the binding result with Roquin-1 ROQ (171-326) was “binds”.
Turning to ACAUGUUUUCUGUGAAAACGGAG (structured_RNA) [Tnf CDE SL], in series [1], the Kd came out at 42 ± 19 nM.
